Source: paper PMC3260263, “Structural Characterization of a Novel Chlamydia pneumoniae Type III Secretion-Associated Protein, Cpn0803” (PLoS ONE, 2012)
Several values for one entry are separate records, joined by “and”; a condition that tells them apart may be missing. Equal values may be shown once.

Legend:
[1] = target: the molecule itself; assay: SEC; Superdex S200 10/300 GL, 20 mM Tris pH 7, 100 mM KCl, 5 mg/mL protein; column standardized with LMW and HMW standards; peak fractions checked by anti-His Western blot
[2] = target: GST-CdsF (Chlamydia pneumoniae CWL029); assay: ELISA; glutathione plate assay: GST fusion captured from lysate on glutathione coated plates, bacterial lysate over-expressing the His-tagged protein added, 4°C 2 hours; washed with 500 mM NaCl, 0.1% Triton X-100, 50 mM TRIS-HCl pH 7.5; anti-6xHis antibody, HRP, OPD, absorbance at 450 nm; positive if two standard deviations above GST alone
[3] = target: GST-CdsN (Chlamydia pneumoniae CWL029); assay: as above
[4] = target: GST-CdsQ (Chlamydia pneumoniae CWL029); assay: as above

B1: His-Cpn0803 (natural protein)
chain: MAAKTKTLELEDNVFLLLEGNLKRIFATPIGYTTFREFQNVVFNCANGQQEIANFFFEMLINGKLTQELAPQQKQAAHSLIAEFMMPIRVAKDIHERGEFINFITSDMLTQQERCIFLNRLARVDGQEFLLMTDVQNTCHLIRHLLARLLEAQKNPVGEKNLQEIQEEITSLKNHFDELTKALQ
notes: Cpn0803 of Chlamydia pneumoniae CWL029 (ortholog of C. trachomatis CT584), 184 amino acids; Hexamer and dimer in solution by gel filtration; a SeMet derivative was used for phasing only; also called recombinant His-Cpn0803; full-length Cpn0803; source: E. coli, over-expressed, in lysate (glutathione plate assay, GST pull-down); E. coli, purified on a column eluted with 300 mM imidazole …
For B1, the “stoichiometry N” value [1] was 6 and 2, the absorbance (450 nm) (absorbance units) [2] was 0.36 and the absorbance (450 nm) (absorbance units) [3] was 0.38. For the same binder, the absorbance (450 nm) (absorbance units) [4] was 0.41.
